Laboratory results as given in paper PMC9288427, “The CIP2A-TOPBP1 complex safeguards chromosomal stability during mitosis” (Nature Communications, 2022).

Molecular target: T1, GST-tagged CIP2A Armadillo repeat domain (ArmRD, aa 1-559) (human, UniProt Q8TCG1 1-559)
T1 construct: CIP2A, human, aa 1-559 (bases 1 through 1677 of the full length cDNA) cloned into pGEX-4T3; the results give the ArmRD as amino acids 1-560; the methods give the construct as aa 1-559; also called GST-ArmRP of CIP2A; GST-tagged ArmRD
Experiment: pull-down; 800 µg CHO protein extract with HA-TOPBP1 aa740-899 bound to anti-HA agarose beads (1 h, 4 °C), unbound fraction washed away, 5 µg purified GST-tagged ArmRD added for 90 min at 4 °C, washed 3 x 15 min with cold PBS; Western blot
Conditions: both partners purified

- binding result: binds
B1: HA-tagged TOPBP1 aa740-899 fragment expressed in ExpiCHO-S cells (domain or fragment, human, UniProt Q92547 740-899, looked up)
chain: NSTKEERSLETEITNGINLNSDTAEHPGTRLQTHRKTVVTPLDMNRFQSKAFRAVVSQHARQVAASPAVGQPLQKEPSLHLDTPSKFLSKDKLFKPSFDVKDALAALETPGRPSQQKRKPSTPLSEVIVKNLQLALANSSRNAVALSASPQLKEAQSEKE
notes: Same construct as m1, other host; source: ExpiCHO-S, transfected; not shown: HA, N-terminal, kept
